Legend:
Settings in all cases: GMSA: K-glu100 buffer (40 mM HEPES pH 8.0, 10 mM MgCl2, 100 mM K glutamate, 4 mM DTT, 500 ug/ml BSA), 15 min at 37 C, 1 nM DNA, 18-150 nM RNA polymerase …
[1] = target: T1, Esigma70 RNA polymerase holoenzyme (reconstituted) (UniProt P00579+P0A7Z4+P0A8V2+P0A8T7+P0A800); assay: KMnO4 footprinting
[2] = target: T2, EsigmaS RNA polymerase holoenzyme (reconstituted) (UniProt P13445+P0A7Z4+P0A8V2+P0A8T7+P0A800); assay: KMnO4 footprinting
[3] = target: T2, EsigmaS RNA polymerase holoenzyme (reconstituted); assay: EMSA
[4] = target: T1, Esigma70 RNA polymerase holoenzyme (reconstituted); assay: EMSA

| Sequence | binding [1] | binding [2] | binding [3] | binding [4] |
| --- | --- | --- | --- | --- |
| GATGGCGATAACTTCACTGGTGCGAAATGCGACCGAAGCAACCGCGCCATTACCGTCAATAGTAATCATATGACACCCTTACATTGCGCAAATGAGGGGCGCACGAAATTGCTGCGCGCCCAGTAGTAATCTTTCAATTTTAGCAAATGGCTTTCTTCTGCATTTTCGCTTTTGTGTCCCCCACATCAGCGTAATGAATGTTTTGATCAAACAGAGGGCAAAAAAATAGCCATAAAAAAGTAAAAATGCG (double strand) [ydbK promoter fragment] | binds | binds | binds | – |
| TATTCAGTCGCTGAAAAGCCGCTACGGCGAAAGTGAAGAGATCCTGTCGCTGCTTAATCTTTATCATAATCTGCTGCGGGAATGGTCGGAGATCTGATGCTTGAACTGCCCGAGTTCGTCCCTGGATTAGCTACACTTAACTGTACAAGTATTGATATGGGGAGGTCGATATGGCATCCGGTTGGGCTAACGATGACGCCGTCAACGAACAGATCAACAGTACAATT (double strand) [ybiI promoter fragment] | binds more weakly | binds | binds | binds more weakly |
